Test results: article PMC4978539

Key:
Assay in all cases: proximity ligation
[1] = target: HIV-1 Gag with the CA mutations Q7A/Q9A, expressed from a proviral point mutant (HIV-1)
[2] = target: HIV-1 Gag with the CA mutation G89A, expressed from a proviral point mutant (HIV-1)
[3] = target: HIV-1 Gag, wild type, expressed from the proviral clone pNL4-3 (HIV-1)
mCherry-Gag (HIV-1) = target: mCherry-Gag (HIV-1)
mCh-GagQ7A/Q9A (HIV-1) = target: mCh-GagQ7A/Q9A (HIV-1)

Cyclophilin A, sequence (P62937 whole entry): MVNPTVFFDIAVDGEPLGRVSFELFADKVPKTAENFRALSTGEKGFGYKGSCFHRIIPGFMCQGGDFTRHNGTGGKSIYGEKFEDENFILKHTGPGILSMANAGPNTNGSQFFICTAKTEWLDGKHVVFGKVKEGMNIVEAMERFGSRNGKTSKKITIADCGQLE
Ras-GAP SH3 domain-binding protein (G3BP1), endogenous, sequence (Q13283 whole entry, the tested form may be a part): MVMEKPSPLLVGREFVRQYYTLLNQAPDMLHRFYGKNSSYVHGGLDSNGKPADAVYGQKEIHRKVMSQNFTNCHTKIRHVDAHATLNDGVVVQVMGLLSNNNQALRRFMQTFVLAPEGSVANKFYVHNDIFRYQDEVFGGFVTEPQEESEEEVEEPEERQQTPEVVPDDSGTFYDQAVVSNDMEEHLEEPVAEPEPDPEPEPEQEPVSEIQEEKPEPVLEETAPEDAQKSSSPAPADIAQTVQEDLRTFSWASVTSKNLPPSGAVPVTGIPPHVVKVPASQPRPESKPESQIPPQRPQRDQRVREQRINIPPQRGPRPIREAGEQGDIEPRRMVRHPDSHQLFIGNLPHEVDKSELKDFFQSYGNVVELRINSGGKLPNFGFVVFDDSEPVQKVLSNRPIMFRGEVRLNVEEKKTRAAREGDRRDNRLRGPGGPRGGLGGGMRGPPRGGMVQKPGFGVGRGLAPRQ

## eukaryotic elongation factor 2, endogenous (from UniProt P13639 1-858) (natural protein)
[1]
  PLA spots/cell: 5.1 spots/cell
[2]
  PLA spots/cell: 3.44 spots/cell
[3]
  PLA spots/cell: 11.6 spots/cell

## Cyclophilin A (from UniProt P62937 1-165) (natural protein)
[1]
  PLA spots/cell: 27.4 spots/cell
[2]
  PLA spots/cell: 18.7 spots/cell
[3]
  PLA spots/cell: 60.3 spots/cell

## Ras-GAP SH3 domain-binding protein (G3BP1), endogenous (from UniProt Q13283 1-466) (natural protein)
mCherry-Gag (HIV-1)
  PLA spots/cell: 107 spots/cell
mCh-GagQ7A/Q9A (HIV-1)
  PLA spots/cell: 33.8 spots/cell
